Measured values: patent US20130217572A1, “SPECIFIC DELIVERY OF AGROCHEMICALS” (VRIJE UNIVERSITEIT BRUSSEL, priority 2010, published 2013)

Legend:
potato lectin = target: T1, potato lectin (Solanum tuberosum, UniProt Q9S8M0); experiment: VHH binding to potato lectin in ELISA; conditions: blank wells; VHH 3 μg/ml
T1 sequence (Q9S8M0 23-323): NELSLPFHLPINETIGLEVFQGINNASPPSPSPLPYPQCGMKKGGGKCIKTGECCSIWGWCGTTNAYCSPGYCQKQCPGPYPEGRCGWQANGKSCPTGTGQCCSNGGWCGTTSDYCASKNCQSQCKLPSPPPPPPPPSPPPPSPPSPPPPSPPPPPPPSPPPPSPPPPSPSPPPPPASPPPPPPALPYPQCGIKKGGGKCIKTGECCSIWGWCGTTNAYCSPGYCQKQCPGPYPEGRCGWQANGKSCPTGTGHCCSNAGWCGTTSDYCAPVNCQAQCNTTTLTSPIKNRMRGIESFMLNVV
Description: (§1) ELISA plates (Maxisorp, Nunc) coated with 100 μl per well 100 μg/ml potato lectin (Sigma) in PBS were coated at 4° C. overnight and coating was continued at room temperature for 1 hour on the next day. Plates were washed three times with PBS/0.05%-TWEEN®-20 and blocked with 5% skimmed milk in PBS for 1 hour. VHH (3 μg/ml) were transferred to the potato lectin-coated plates and VHH antibody fragments were allowed to bind for 1 hour at room temperature. Bound VHH were detected with sequential incubations with monoclonal mouse anti-histidine antibodies (Abd Serotec) and rabbit anti-mouse IgG whole molecule antibodies conjugated with alkaline phosphatase (RaM/AP) (Sigma) in 1% MPBS/0.05%-TWEEN®-20. Unbound antibodies were removed by washing three times with PBS/0.05%-TWEEN®-20 after each antibody incubation. The plates were washed an additional two times with PBS and 100 μl pNPP disodium hexahydrate substrate (Sigma) was added to each well and the absorbance at 405 nm was measured (see Table 2).

potato lectin (Sigma) = target: T2, potato lectin (Sigma) (potato, UniProt Q9S8M0 23-323); experiment: ELISA, potato lectin coated at 100 ug/ml, VHH at 3 ug/ml, anti-histidine detection
T2 construct: Bought glycoprotein, coated on ELISA plates
T2 sequence (looked up): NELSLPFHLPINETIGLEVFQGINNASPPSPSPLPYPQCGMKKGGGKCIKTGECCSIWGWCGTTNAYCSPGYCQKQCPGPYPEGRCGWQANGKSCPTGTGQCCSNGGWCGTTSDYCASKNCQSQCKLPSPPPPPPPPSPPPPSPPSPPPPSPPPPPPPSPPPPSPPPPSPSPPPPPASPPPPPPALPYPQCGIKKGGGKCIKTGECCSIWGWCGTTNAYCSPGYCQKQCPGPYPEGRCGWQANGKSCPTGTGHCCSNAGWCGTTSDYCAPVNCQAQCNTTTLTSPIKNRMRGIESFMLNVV
Description: as §1

gum arabic = experiment: VHH binding to gum arabic in ELISA; set-up: species or system acacia tree
Description: Titration of VHH antibody fragments was performed on ELISA plates (Maxisorp, Nunc) coated with 100 μl per well 100 μg/ml gum arabic in 50 mM carbonate pH9.6. Plates were coated at 4° C. overnight and coating was continued at room temperature for 1 hour on the next day. Plates were washed three times with PBS/0.05%-TWEEN®-20 and blocked with 5% skimmed milk in PBS for 1 hour. Four-fold serial dilutions of purified VHH antibody fragments were prepared in 1% MPBS/0.05%-TWEEN®-20 in polypropylene 96-well plates. Antibody concentrations ranged from 3 μg/ml to 12 ng/ml. Antibody dilutions were transferred to the gum arabic-coated plates and VHH antibody fragments were allowed to bind for 1 hour at room temperature. Bound VHH were detected with sequential incubations with monoclonal mouse anti-histidine antibodies (Abd Serotec) and rabbit anti-mouse IgG whole molecule antibodies conjugated with alkaline phosphatase (RaM/AP) (Sigma) in 1% MPBS/0.05%-TWEEN®-20. Unbound antibodies were removed by washing three times with PBS/0.05%-TWEEN®-20 after each antibody incubation. The plates were washed an additional two times with PBS and 100 μl pNPP disodium hexahydrate substrate (Sigma) was added to each well. The absorbance at 405 nm was measured and plotted as function of antibody concentration (see Table 1).

potato leaf surface = experiment: VHH binding to leaf discs (microscopy); set-up: species or system potato (variety Désirée); conditions: 5 μg/ml in PBS, anti-histidine Alexa-488 detection
Description: VHH binding to non-fixed leaf discs of potato (variety Désirée), black nightshade, grass, wheat or azalea was investigated. For comparison, binding of CBM3a to non-fixed leaf discs of potato (variety Désirée) was analyzed in parallel. Leaf discs were prepared by punching a fresh potato leaf with a 5 mm belt hole puncher tool. Leaf discs were put immediately in wells of a 96-well plate containing 200 μl per well 5% MPBS or PBS, and incubated for 30 minutes. Leaf discs were transferred to solutions containing 5 μg/ml VHH antibody fragment, respectively 5 μg/ml CBM3a in 2% MPBS or PBS and incubated for 60-90 minutes. Unbound VHH or CBM3a proteins were removed by washing three times with 2% MPBS or PBS. Bound VHH or CBM3a proteins were detected with incubation with monoclonal mouse anti-histidine antibodies directly conjugated with Alexa-488 fluorescent dye (Abd Serotec) in 1% MPBS for 1 hour. Unbound antibodies were removed by washing three times with PBS. Leaf discs were put on glass slides, covered with cover slips, and analyzed by microscopy or on a macrozoom microscope system (Nikon) or a SP5 confocal microscope system (Leica).

[1] = Table 2, gum arabic coat, VHH 3 μg/ml
[2] = [VHH] 0.0117188 μg/ml (0.78125 nM), gum arabic 100 μg/ml
[3] = [VHH] 0.04688 μg/ml (3.125 nM), gum arabic 100 μg/ml
[4] = [VHH] 0.1875 μg/ml (12.5 nM), gum arabic 100 μg/ml
[5] = [VHH] 0.75 μg/ml (50 nM), gum arabic 100 μg/ml
[6] = [VHH] 3 μg/ml (200 nM), gum arabic 100 μg/ml
[7] = [VHH] 3 μg/ml (200 nM), no gum arabic coat (−)

Row | Molecule | absorbance at 405 nm (potato lectin) | absorbance at 405 nm (potato lectin (Sigma)) | absorbance at 405 nm (gum arabic; [1]) | absorbance at 405 nm (gum arabic; [2]) | absorbance at 405 nm (gum arabic; [3]) | absorbance at 405 nm (gum arabic; [4]) | absorbance at 405 nm (gum arabic; [5]) | absorbance at 405 nm (gum arabic; [6]) | absorbance at 405 nm (gum arabic; [7]) | binding to native potato leaf surface (potato leaf surface) | binding to native potato leaf surface (potato leaf surface; listed as 5D4)
1 | VHH 5C4 (VHH, Hexahistidine-tagged) VHH: QVQLQESGGGLVQPGGSLRLSCAASGFSLRYFGIGWFRQVAGKEREPVSCSNVRDGNTYYADSVKGRFTISRDNVRNTLYLQMNSLKPEDTAVYSCATTDCEATTWGTYRGYFGQGTQVTVSS | 0.071 | 4 | 0.873 | 0.166 | 0.386 | 1.036 | 1.710 | 2.010 | 0.082 | – | –
2 | VHH 5G5 (VHH, Hexahistidine-tagged) VHH: QVQLQESGGGLVQPGGSLRLSCAASGFSLRYFGIGWFRQAAGKEREGISCSNVRDGNTYYADSVKGRFTISRDNVRNMLYLQMNNLKPDDTAVYSCATTDCEATTWGTYRGYFGQGTQVTVSS | 0.073 | 4 | 0.751 | 0.125 | 0.317 | 0.906 | 1.611 | 1.966 | 0.077 | – | –
3 | VHH7A2: plant-binding VHH, listed among SEQ ID NO:1-42 (protein, listed as Lama glama, 7A2) VHH: QVQLQESGGGSVHPGGSLTLSCLASGFSLSNYGMGWFRQAPGKEREAVSCTSVPNGHIYYAESVKGRFTIVRDNAGNSVYLQMNSLKPEDAANYFCATTDCEAAHWGTWVNYYGQGTQVTVSS | – | – | – | 0.088 | 0.101 | 0.216 | 0.677 | 1.391 | 0.075 | – | –
4 | VHH7C2: plant-binding VHH, listed among SEQ ID NO:1-42 (protein, listed as Lama glama, 7C2) VHH: QVQLQESGGGLVQPGGSLRLSCAAFGFALANYGIGWFRQAPGKDRERVSCDSVDDGSTHYSNSVQGRFTIIRDNAKNTVFLQMNSLKAEDTAVYYCATTDCDATTWGTWINYRGQGTQVTVSS | – | – | – | 0.088 | 0.092 | 0.090 | 0.194 | 0.461 | 0.077 | – | –
5 | VHH5E5: plant-binding VHH, listed among SEQ ID NO:1-42 (protein, listed as Lama glama, 5E5) VHH: QVQLQESGGGLVQPGGSLTLSCTASGFAMRRFGIGWFRQVVGKEREGVSCSNVHDGSTYYANYVKGRFTIVRDDTKNMLYLHMNSLRAEDTGVYSCATTDCEATAWGTYRGYFGQGTQVTVSS | – | – | – | 0.074 | 0.088 | 0.185 | 0.569 | 1.194 | 0.073 | – | –
6 | VHH5F5: plant-binding VHH, listed among SEQ ID NO:1-42 (protein, listed as Lama glama, 5F5) VHH: QVQLQESGGGLVQPGGSLRLSCAASGFPLGLYGIGWFRQAPGKEREAVSCDSVDDGSTNYLDSVKGRFTISRDNAKNMVYLQMNSLKPEDTAVYYCATTDCDAKAWGTWTNYRGQGTQVTVSS | – | – | – | 0.093 | 0.100 | 0.191 | 0.476 | 0.959 | 0.090 | – | –
7 | VHH 5D4 (VHH, Hexahistidine-tagged) VHH: QVQLQESGGGLVQPGGSLRLSCAASGFDMRRFGIGWFRQVAGKEREGVSCSNVHDGTTYYTNDVKGRFTIVRDNTKNMLYLQMNKLRPEDTAVYSCATTDCEATAWGTYRGYFGQGTQVTVSS | 0.072 | 4 | 0.530 | 0.087 | 0.134 | 0.378 | 0.840 | 1.280 | 0.075 | binding leaf surface, stomata, glandular trichomes, and leaf hairs | clearly binding to trichomes, stomata and cuticle
8 | VHH 7D2 (VHH, Hexahistidine-tagged) VHH: QVQLQESGGGLVQPGRSLKVACAAAGFSLRYYGIGWFRQAPGKEREAVSCTSANDGSTYYRDSVRGRFTISRDDGKNTVYLQMNRLKPEDTAVYYCATTDCDATSWGTWINYYGQGTQVTVSS | 0.072 | 4 | 0.274 | 0.083 | 0.136 | 0.347 | 0.906 | 1.427 | 0.074 | – | –
